From the Immune Epitope Database (IEDB)

Experiments:
HLA-B*08:01 = assay: IEDB peptide-MHC binding, purified MHC/direct/fluorescence; filed as Kd, often an IC50 or EC50 that approximates it; ≥ and ≤ were set here for values at or beyond the usual limits of such assays; settings: source organism: Giardia lamblia ATCC 50803
HLA-B*08:02 = assay: as above; settings: source organism: Giardia lamblia ATCC 50803
HLA-C*03:03 = assay: as above; settings: source organism: Yersinia frederiksenii ATCC 33641
HLA-C*12:03 = assay: as above
HLA-C*15:02 = assay: as above; settings: source organism: Yersinia frederiksenii ATCC 33641
HLA-A*24:02 = assay: IEDB peptide-MHC binding, purified MHC/competitive/fluorescence; filed as Kd, often an IC50 or EC50 that approximates it; ≥ and ≤ were set here for values at or beyond the usual limits of such assays
HLA-A*02:01 = assay: as above
HLA-A*02:03 = assay: as above; settings: source organism: Brucella abortus S19
HLA-A*02:11 = assay: as above; settings: source organism: Brucella abortus S19
HLA-A*02:12 = assay: as above; settings: source organism: Brucella abortus S19
HLA-A*02:19 = assay: as above; settings: source organism: Brucella abortus S19
HLA-A*03:01 = assay: as above; settings: source organism: Brucella abortus S19
HLA-A*24:03 = assay: as above; settings: source organism: Brucella abortus S19
HLA-A*26:01 = assay: as above
HLA-A*29:02 = assay: as above; settings: source organism: Brucella abortus S19
HLA-A*68:02 = assay: as above
HLA-A*69:01 = assay: as above; settings: source organism: Brucella abortus S19
HLA-B*15:01 [1] = assay: as above; settings: source organism: Brucella abortus S19
HLA-B*15:17 = assay: as above
HLA-B*18:01 = assay: as above; settings: source organism: Brucella abortus S19
HLA-B*27:03 = assay: as above; settings: source organism: Brucella abortus S19
HLA-B*39:01 = assay: as above; settings: source organism: Brucella abortus S19
HLA-B*46:01 [2] = assay: as above; settings: source organism: Brucella abortus S19
HLA-B*51:01 = assay: as above; settings: source organism: Brucella abortus S19
HLA-B*57:01 [3] = assay: as above; settings: source organism: Brucella abortus S19
HLA-A*01:01 = assay: IEDB peptide-MHC binding, purified MHC/direct/fluorescence; filed as Kd, often an IC50 or EC50 that approximates it; ≥ and ≤ were set here for values at or beyond the usual limits of such assays; settings: source organism: Camelpox virus M-96
HLA-A*31:01 = assay: as above; settings: source organism: Camelpox virus M-96
HLA-B*07:02 = assay: as above; settings: source organism: Camelpox virus M-96
HLA-B*15:01 [4] = assay: as above; settings: source organism: Camelpox virus M-96
HLA-B*27:05 = assay: as above; settings: source organism: Camelpox virus M-96
HLA-B*46:01 [5] = assay: as above; settings: source organism: Camelpox virus M-96
HLA-B*48:01 = assay: as above; settings: source organism: Camelpox virus M-96
HLA-B*57:01 [6] = assay: as above; settings: source organism: Camelpox virus M-96
HLA-B*58:01 = assay: as above; settings: source organism: Camelpox virus M-96
HLA-A*11:01 = assay: IEDB peptide-MHC binding, purified MHC/competitive/fluorescence; filed as Kd, often an IC50 or EC50 that approximates it; ≥ and ≤ were set here for values at or beyond the usual limits of such assays; settings: source organism: Vaccinia virus WR
HLA-A*26:02 = assay: as above; settings: source organism: Vaccinia virus WR
HLA-A*30:01 = assay: as above; settings: source organism: Vaccinia virus WR
HLA-B*35:01 = assay: as above; settings: source organism: Vaccinia virus WR
[7] = source organism: Brucella abortus S19
[8] = source organism: Vaccinia virus WR

Q: How did the Kd (HLA-B*08:01) turn out when YSKIRGAAL was run?
A: 0.027 µM

Q: What about the Kd (HLA-B*08:02) of the same sequence?
A: 0.445 µM

Q: How did the Kd (HLA-C*03:03) turn out when LAIEATLAF was run?
A: ≥ 20 µM

Q: What about the Kd (HLA-C*12:03; source organism: Yersinia frederiksenii ATCC 33641) of the same sequence?
A: 1.04 µM

Q: And the Kd (HLA-C*15:02)?
A: ≥ 20 µM

Q: With PYMSALFWI as the sequence, how does the Kd (HLA-A*24:02; source organism: Cryptosporidium parvum Iowa II) read?
A: 0.0008 µM

Q: For KQWIVAGAI, which Kd (HLA-A*02:01; [7]) is on record?
A: 0.0017 µM

Q: And the Kd (HLA-A*02:03)?
A: ≥ 20 µM

Q: And the Kd (HLA-A*02:11)?
A: ≤ 0.0001 µM

Q: What about the Kd (HLA-A*02:12) of the same sequence?
A: ≥ 20 µM

Q: And the Kd (HLA-A*02:19)?
A: ≥ 20 µM

Q: What about the Kd (HLA-A*03:01) of the same sequence?
A: ≥ 20 µM

Q: And the Kd (HLA-A*24:03)?
A: ≥ 20 µM

Q: And the Kd (HLA-A*26:01; [7])?
A: ≥ 20 µM

Q: And the Kd (HLA-A*29:02)?
A: ≥ 20 µM

Q: What about the Kd (HLA-A*68:02; [7]) of the same sequence?
A: ≥ 20 µM

Q: And the Kd (HLA-A*69:01)?
A: ≥ 20 µM

Q: And the Kd (HLA-B*15:01 [1])?
A: ≥ 20 µM

Q: And the Kd (HLA-B*15:17; [7])?
A: ≥ 20 µM

Q: And the Kd (HLA-B*18:01)?
A: ≥ 20 µM

Q: What about the Kd (HLA-B*27:03) of the same sequence?
A: ≥ 20 µM

Q: What about the Kd (HLA-B*39:01) of the same sequence?
A: ≥ 20 µM

Q: What about the Kd (HLA-B*46:01 [2]) of the same sequence?
A: ≥ 20 µM

Q: What about the Kd (HLA-B*51:01) of the same sequence?
A: ≥ 20 µM

Q: What about the Kd (HLA-B*57:01 [3]) of the same sequence?
A: ≥ 20 µM

Q: With RYSGFVRTLF as the sequence, how does the Kd (HLA-A*24:02; source organism: Influenza A virus (A/turkey/Ohio/313053/2004(H3N2))) read?
A: ≤ 0.0001 µM

Q: With FVFEATKLY as the sequence, how does the Kd (HLA-A*01:01) read?
A: ≥ 20 µM

Q: What about the Kd (HLA-A*31:01) of the same sequence?
A: ≥ 20 µM

Q: What about the Kd (HLA-B*07:02) of the same sequence?
A: ≥ 20 µM

Q: And the Kd (HLA-B*15:01 [4])?
A: 0.0177 µM

Q: What about the Kd (HLA-B*27:05) of the same sequence?
A: ≥ 20 µM

Q: What about the Kd (HLA-B*46:01 [5]) of the same sequence?
A: ≥ 20 µM

Q: What about the Kd (HLA-B*48:01) of the same sequence?
A: ≥ 20 µM

Q: What about the Kd (HLA-B*57:01 [6]) of the same sequence?
A: ≥ 20 µM

Q: What about the Kd (HLA-B*58:01) of the same sequence?
A: ≥ 20 µM

Q: And the Kd (HLA-C*12:03; [8])?
A: ≤ 0.001 µM

Q: What about the Kd (HLA-A*02:01; [8]) of the same sequence?
A: ≥ 20 µM

Q: And the Kd (HLA-A*11:01)?
A: 2.08 µM

Q: And the Kd (HLA-A*26:01; [8])?
A: 0.0167 µM

Q: And the Kd (HLA-A*26:02)?
A: 0.0668 µM

Q: What about the Kd (HLA-A*30:01) of the same sequence?
A: ≥ 20 µM

Q: And the Kd (HLA-A*68:02; [8])?
A: 0.0496 µM

Q: And the Kd (HLA-B*15:17; [8])?
A: 0.12 µM

Q: What about the Kd (HLA-B*35:01) of the same sequence?
A: 0.0057 µM
